Experimental data: the supplement of paper PMC10567573
± gives the standard deviation.

Assay: protein stability index of a GFP-peptide fusion (GPS, HEK-293T) (PSI 1-6); higher = more stable
[1] = treatment: DMSO, c terminus: a fixed tail appended
[2] = treatment: MLN4924 1 uM, 8 h, c terminus: a fixed tail appended
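Also: 24-mer peptide tiles fused after GFP, lentivirally expressed, FACS-sorted into six equal bins by GFP/DsRed ratio, decoded by Illumina sequencing, PSI is the read-weighted mean bin number.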

Sequence | protein stability index [1] | protein stability index [2] | protein stability index (treatment: DMSO, c terminus: native) | protein stability index (treatment: MLN4924 1 uM, 8 h, c terminus: native)
VFEKAGVSISVVHGNLSEEAAKQM [CPOX] | 3.72 ± 0.15 | 3.65 ± 0.4 | – | –
EEEAASPEGKRVPKRLRCWEEEED [FANCE] | 5.4 ± 0.42 | 5.38 ± 0.21 | – | –
VTDCKHTEDVGVVCSDKRIPGFKF [LOXL2] | 3.61 ± 0.35 | 3.77 ± 0.16 | – | –
FEQGKWDVFSENLLADVKGARAAL [STX11] | 2.67 ± 0.14 | 2.72 ± 0.45 | – | –
EIYKRFLTRMTRVSEFLKVAEQVG [SNAP91] | 2.44 ± 0.63 | 2.45 ± 0.24 | – | –
QGTAEEDHVDLSLSCTLVPRSGEQ [CDKN1A] | 5.19 ± 0.12 | 5.2 ± 0.28 | – | –
ERELLGQDEETAMRKSLGEEELS [RSPH3] | – | – | 5.48 ± 0.4 | 5.575 ± 0.042
VQRLTSRAARDYKIQNHGHRVLQR [FCHSD1] | 3.33 ± 0.08 | 3.44 ± 0.1 | – | –
SNLIRHQRIHAAERLCMGVDCTEI [ZNF263] | 3.17 ± 0.2 | 3.18 ± 0.21 | – | –
HESSGNPPLRVIVKDALFCSCLSD [RHOBTB3] | 3.11 ± 0.25 | 3.24 ± 0.12 | – | –
DTGETSMLKRPVLLHLHQTAHADE [STEAP1] | 4.63 ± 0.078 | 4.88 ± 0.18 | – | –
IFEPPVRNSGIIGGKYLGRTKVVK [EFHC1] | 3.42 ± 0.3 | 3.62 ± 0.28 | – | –
MDIKNSPSSLNSPSSYNCSQSILP [ESR2] | 3.8 ± 0.19 | 3.93 ± 0.29 | – | –
NQVSSNSWGIAGETELALVKESGE [DLC1] | 5.17 ± 0.41 | 5.23 ± 0.2 | – | –
HEPPFHLDREIRLQRLSHSGSRVR [SCNN1D] | 4.27 ± 0.13 | 4.31 ± 0.21 | – | –
IDEIISLESSYNDEMLSYLPGGTT [TFE3] | 3.96 ± 0.16 | 3.88 ± 0.32 | – | –
FFFRHGHRGLLTMQLKSPMPSSTT [SPAG8] | 2.14 ± 0.26 | 2 ± 0.23 | – | –
AYHVPNRTLASGRLLSYRGERVAA [DNAAF3] | 3.31 ± 0.23 | 3.4 ± 0.14 | – | –
SSEHFEKLHEIFRGLHEDLQGVPE [VTI1B] | 4.11 ± 0.32 | 3.97 ± 0.12 | – | –
ATFNCLNKRLAKYRMRNVHPKPKL [CLCN6] | 2.56 ± 0.15 | 2.8 ± 0.27 | – | –
ECRNPQELESIRQDRDALHMEGLI [FEM1B] | 4.3 ± 0.16 | 4.31 ± 0.17 | – | –
VEKNEHCIENNIDLQVNRNFSLAT [R3HDM1] | 4 ± 0.23 | 3.93 ± 0.31 | – | –

Sequence | protein stability index [1] | protein stability index [2] | protein stability index (treatment: DMSO, c terminus: native) | protein stability index (treatment: MLN4924 1 uM, 8 h, c terminus: native)
SHGANVNHTTVTNSTPLRAACFDG [FEM1B] | 4.02 ± 0.14 | 4.25 ± 0.086 | – | –
GCKVPQEALLKLLAGLTRPDVRPP [SEPHS2] | 2.28 ± 0.33 | 2.03 ± 0.29 | – | –
RRVPPRFSIPPTNHEIMPGGSVNI [PTPRD] | 3.38 ± 0.22 | 3.39 ± 0.22 | – | –
IAVKTLGIGKNVICDRTATPLDAF [GFOD1] | 2.43 ± 0.14 | 2.53 ± 0.17 | – | –
PDRASGPEGSLSQTMAGSSPNTPQ [FAM104A] | 5.3 ± 0.21 | 5.34 ± 0.2 | – | –
LQSELAGVADFSATYLRCQLLLIK [INTS4] | 2.79 ± 0.46 | 2.57 ± 0.11 | – | –
FYFENLWSRNSKPVHTTILNPHIH [CAMK2A] | 2.33 ± 0.51 | 2.5 ± 0.45 | – | –
IEAAVQDRLNEQEGVPSVFNPPPS [FAF2] | 5.06 ± 0.17 | 5.04 ± 0.15 | – | –
LKNEIQEVEELDNWQPAVPLMHML [SPATS1] | 2.8 ± 0.45 | 3.18 ± 0.38 | – | –
TESQLTPCIRNVTSPTRQHHVERE [BTBD10] | 4.99 ± 0.16 | 4.95 ± 0.17 | – | –
KRIEAEEAIKGLNGQKPLGAAEPI [ELAVL3] | 4.77 ± 0.16 | 4.951 ± 0.042 | – | –
SIYLVGGYSWSMGAYKSSTICYCP [KLHL14] | 2.87 ± 0.46 | 2.53 ± 0.87 | – | –
FFVPLSYLLMVTVILLPYVSKVTG [TMEM175] | 3.33 ± 0.26 | 3.11 ± 0.31 | – | –
ERERQPCGDGNTETHRAPDLVQWT [SOAT2] | 4.92 ± 0.06 | 4.65 ± 0.24 | – | –
TTYLKTIEVFDPDANTWRLYGGMN [KLHL20] | 2.34 ± 0.23 | 2.26 ± 0.042 | – | –
LGFGPTYVVLAYTLPPASRFIIIF [SOAT1] | 3.09 ± 0.14 | 3.03 ± 0.77 | – | –
CRFLLNSRVTDAAFNFLLVWYYCT [TMEM120A] | 2.85 ± 0.74 | 2.38 ± 0.48 | – | –
KQILDGVHYLHSKRIAHFDLKPEN [DAPK3] | 2.91 ± 0.18 | 3.19 ± 0.26 | – | –
LGSDDEEQEDPADYCKGGYHPVKI [SRPK2] | 4.81 ± 0.31 | 4.67 ± 0.31 | – | –
PDPLNICVFILLLVFIVVKCFTSE [RTP4] | 2.97 ± 1.2 | 2.72 ± 0.81 | – | –
HNYNILIATLRVALPSVMRFCCCV [MCOLN1] | 2.83 ± 0.59 | 2.9 ± 0.48 | – | –
EERASLAGNRNSMVIHIPEEPRPS [KCNK9] | 4.82 ± 0.13 | 4.94 ± 0.38 | – | –

Sequence | protein stability index [1] | protein stability index [2] | protein stability index (treatment: DMSO, c terminus: native) | protein stability index (treatment: MLN4924 1 uM, 8 h, c terminus: native)
WKCKNARGQVGLVPKNYVVVLSDG [NCK2] | 2.15 ± 0.26 | 2.31 ± 0.45 | – | –
GPLGDQLHAQLRDLTSSSSDELSW [ELF3] | 4.04 ± 0.047 | 4.18 ± 0.29 | – | –
GLELALACDIRVAASSAKMGLVET [AUH] | 2.37 ± 0.77 | 2.34 ± 0.18 | – | –
KLKNTVTIQQEKLLAEKEEKLQKE [SASS6] | 5.1 ± 0.46 | 5.2 ± 0.31 | – | –
QEVTEPAVVAVDRQAIFPDTWTLT [PXN] | 4.06 ± 0.23 | 3.8 ± 0.36 | – | –
NRRDVEAWFFSKTEELNKEVASNT [KRT15] | 4.05 ± 0.26 | 4.12 ± 0.23 | – | –
PETVMTTLYTAKKYAVPALEAHCV [BTBD1] | 2.7 ± 0.13 | 2.83 ± 0.15 | – | –
QDTELPKAEECDTITLNCPRNSDM [EDARADD] | 5.32 ± 0.29 | 5.42 ± 0.27 | – | –
GLHVQHMGTSHGITRPSPRRSNSP [CCDC6] | 4.51 ± 0.17 | 4.57 ± 0.082 | – | –
FDEPFLTRNVQSVSIIDTELKVKD [TRIP13] | 4.65 ± 0.19 | 4.49 ± 0.068 | – | –
QKLADLRSLNEEHSKQYRCLSFQP [VDR] | 3.07 ± 0.12 | 3.24 ± 0.17 | – | –
MHDMLLEELAPVGTAHIPPTMHLE [ZNF449] | 3.71 ± 0.32 | 3.64 ± 0.12 | – | –
GHEEMVALLLGQGANINAQTEETQ [ANKRD17] | 4.81 ± 0.28 | 4.96 ± 0.19 | – | –
ENCTLVTTFRGHTGGVTALCWDPV [WDFY2] | 2.53 ± 0.32 | 2.38 ± 0.18 | – | –
INIKGISEAKADKILAEAAKLVPM [RAD51] | 2.62 ± 0.15 | 2.42 ± 0.15 | – | –
YLEVAKHFKPHGFSSDKAKAGSSE [ATF4] | 3.97 ± 0.092 | 4.24 ± 0.33 | – | –
PLLLFTYLNSFLHQRIPQSVRILG [SLC29A1] | 2.96 ± 0.54 | 2.97 ± 0.54 | – | –
WDLRDQSVVRDLKGYPDGVKSIVV [TLE6] | 2.63 ± 0.25 | 2.63 ± 0.077 | – | –
KANNLSSLSKKYRQDAKYLNMRST [SEC22B] | 3.23 ± 0.11 | 3.33 ± 0.24 | – | –
QHTPDQANSDRASIGRRRTELRRS [PLEKHN1] | 4.95 ± 0.38 | 5.34 ± 0.19 | – | –
INTLNGLKLQTKTIKVSYARPSSA [ELAVL3] | 2.38 ± 0.2 | 2.39 ± 0.26 | – | –
